Data as given in patent US20090203886A1 (OSAKA UNIVERSITY, published 2009).

T1: human CD20 antigen (human, UniProt P11836 1-297)
T1 sequence (looked up): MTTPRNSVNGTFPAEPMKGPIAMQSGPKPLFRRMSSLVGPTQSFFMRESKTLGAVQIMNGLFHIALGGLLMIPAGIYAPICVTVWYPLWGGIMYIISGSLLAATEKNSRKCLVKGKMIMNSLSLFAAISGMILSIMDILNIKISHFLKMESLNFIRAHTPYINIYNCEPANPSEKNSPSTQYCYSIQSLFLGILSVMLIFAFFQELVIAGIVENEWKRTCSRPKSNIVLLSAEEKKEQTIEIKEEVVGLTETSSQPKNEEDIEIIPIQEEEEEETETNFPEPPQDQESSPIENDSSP


What was measured:
[1] = target: T1, human CD20 antigen; experiment: Scatchard analysis on Raji cells, FITC secondary antibody fluorescence (Example 2)
Protocol: The mixture was shaken for one hour at room temperature while shielding against light and primary antibodies binding to cells were detected. After the reaction, the mixture was centrifuged at 3,000 rpm for three minutes and the cells were recovered. The cells were suspended in 200 μl of PBS to remove unreacted FITC-labeled anti murine IgG (H&L) antibody remaining on the cell surface and then centrifuged at 3,000 rpm for three minutes to remove the supernatant. This operation was repeated twice.
After the detection step, the image was digitized using image analysis software Image Quant (Amersham Bioscience) and analyzed using Excel (Microsoft). Background values for the plate, the PBS solution and FITC-labeled secondary antibody displaying non-specific binding to cells were determined. Then a value for the reaction only between the cells and the FITC-labeled secondary antibodies was obtained. Average values for those four points were subtracted from the fluorescent intensity value for each sample in order to obtain the amount of fluorescence of cell-conjugated FITC-labeled secondary antibody. A standard curve was prepared by measuring the amount of fluorescence at various concentrations of control cell-conjugated FITC-labeled secondary antibodies. Thus the amount of cell-conjugated secondary antibody (number of moles or weight) was calculated. The amount of cell-conjugated primary antibody was calculated assuming that each primary antibody and the FITC-labeled secondary antibody react at a ratio of 1:2. Primary antibody in suspension was calculated by subtracting the cell-conjugated amount from the added amount. When calculating the antibody concentration as a molar concentration, the molecular weight of the monoclonal was taken to be 150,000.
Scatchard analysis was used to calculate the antigen number and dissociation constant (Kd value) refer to Scatchard, G.; Ann. N.Y. Acad.

[2] = target: T1, human CD20 antigen; experiment: cell-based or functional assay
[3] = target: T1, human CD20 antigen; experiment: cell-based or functional assay; remark: listed apart in the source
[4] = target: T1, human CD20 antigen; experiment: cell-based or functional assay; remark: listed apart in the source

Row | Molecule | Kd [1] [nM] | Cell growth inhibiting test on Raji cells, Absorption (492 nm) (absorbance 492 nm) [2] | Capacity to Induce Apoptosis (Raji cells) [3] | Cell growth inhibiting test on Raji cells, Absorption (492 nm) [4] [absorbance 492 nm]
1 | 2B8 murine anti CD20 antibody (positive control) | 6.79 | 1.76 | – | –
2 | 1K1712 murine anti CD20 monoclonal antibody (antibody, V domains shown, also called m1712) VH: QVQLQQPGAELVKPGASVKMSCKASGFTFTSYNLHWVKQTPGQGLEWIGAIYPGSGDTSYNQQFKGKATLTADKSSNTAYMQLNSLTSEDSAVYCCARSAMISTGNWYFDYWGQGTTLTVSS VL: QIVLSQSPAILSASPGEKVTMTCRASSSVSYMDWYQQKPGSSPKPWIYATSNLASGVPARFSGSGSGTSYSLTISRVEAEDTATYYCQQWTFNPPTFGSGTKLEIK | 0.84 | – | 50 | 2.33
3 | 1K1402 murine anti CD20 monoclonal antibody (antibody, V domains shown, also called m1402) VH: QVQLQQPGAELVKPGASVKMSCKASGFTFTSYNMHWVKQTPGQGLEWIGGIYPGNGDTSYNQKFKGKATLTADKSSSTAYMQLSSLTSEDSAVYYCARFYYYGSMGAMDYWGQGTSVTVSS VL: QIVLSQSPAILSASPGEKVTMTCRASSSVSYMHWYQQKPGSSPKPWIYATSNLASGVPARFSGSGSGTSYSLTITRVEAEDAATYYCQQWTFNPPTFGAGTKLELK | 0.78 | – | 30 | 2.54
4 | 1K1736 murine anti CD20 monoclonal antibody (antibody, V domains shown) VH: QVQLQQPGAELVKPGASVKMSCKASGYTFTTYNLHWVKQTPGQGLEWIGGIYPGNGDTSYNQKFKVKATLTADKSSNTAYMQLSSLTSEDSAVYYCARWIYYGNYEGTLDYWGQGTSVTVSS VL: QIVLSQSPAILSSSPGEKVTMTCRASSSVSYMLWYQQKPGSSPEPWIYATSNLASGVPARFSGGGSGTSYSLTISRVEAEDAATYYCQQWTFNPPTFGGGTKLEIK | 0.54 | – | 50 | 2.24
5 | 1K1782 murine anti CD20 monoclonal antibody (antibody, V domains shown, also called m1782) VH: QVQLQQSGAELAKPGASVKMSCKASGYTFTSYWMHWVKQRPGQGLEWIGYITPSTGYTDYNKKFKDKATLTADRSSSTAYMHLSSLTSEDSAVYYCARSGPYFDVWGAGTTVTVSS VL: DILLTQSPAILFVSPGERVSLSCRASQNIGTSIHWYQQRTNGSPRLLIKYASESFSGIPSRFSGSGSGTDFTLSINSVESEDIADYYCQQSNSWPFTFGSGTKLEIK | 0.4 | – | 30 | 2.6
6 | 1K1791 murine anti CD20 monoclonal antibody (antibody, V domains shown, also called m1791) VH: QIQLVQSGPELKKPGETVKISCKASGYTFTNFGVNWVKQAPGKGLKWMGWINTYTGEPSYADDFKGRFAFSLEASANTAYLQINNLKNDDMSTYFCTRRTNYYGTSYYYAMDYWGQGTSVTVSS VL: STVMTQTPKFLLVSAGDRVTITCKASQSVSNDVAWYQQKPGQSPKVLIYFASNRYTGVPDRFTGSGYGTDFTFTINTVQAEDLAVYFCQQDYSSPLTFGAGTKLELK | 1.7 | – | 160 | 1.79
